Assay: yeast display, Sf9 membrane polyspecificity reagent, FACS + sequencing; frameworks hold sequencing errors
Outline: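 Synthetic nanobody libraries on Saccharomyces cerevisiae BJ5465 were galactose-induced for 36–48 hours, stained 1 hour at 4 °C with 10% biotinylated, detergent-solubilized Sf9 membrane reagent and enriched on streptavidin microbeads. FACS then separated cells into low and high (top ~1%) gates by anti-HA (expression) and streptavidin (reagent binding) fluorescence. Genes were colony-PCR amplified, MiSeq 2 × 250 sequenced and CDR-length filtered. A clone's polyreactivity label is that of its gate of origin.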

Sequence	polyreactivity (PSR sort gate)
QVQLQESGGGLVQAGGSLRLGCAASGNISDAGYMGWYRQAPGKEREFVAAIAAGSNTNYADSVKGRFTISRDNAINTVYLQMNSLKPEVTAVFYCAVASYARVQYEYWGQGTQVTVNS	low polyreactivity
QVQLQESGGGLVQAGGSLRLICAASGTIFSARFMGWYRQAPGKERELVATITDGGNTNHADSVKGRFTISRDNAKNTVYLKMYSLKPEDAAVYYCAAGEVDNDTLLFWGQGSQVTVSS	low polyreactivity
QVQLQESGGGLVQAGGSLRLPCAASGNISDAGYMGWYRQAPGKQREFVAAIAAGSNTNYADSVKGSFTISRDNAKNTVYLQMNSLKPEDTAVIFFAVASYARVQYEYWGQGTQVTVNS	low polyreactivity
QVQLQESGGGLVQAGGSLRLRCAASRNISGSSDLGWYHQAPGKEREFVASITSGGTTYYADSVKGRFTISRDNAKNTVYLQMNSLKPEDTAVYYCAAESRYPFIYEYWGQGTQVTVSS	low polyreactivity
QVQLQESGGGLVQAGGSLRLSCAAIGSISILQSMGWYRQAPGKERELVAGINWGATTYYADSVKGRLTTSRDYAKNTVYLQMNSLKPEDTAVYYCAVPTYYTYPLLYWGQGTQVTVSS	low polyreactivity
QVQLQESGGGLVQAGGSLRLSCAARASIFKVVDMGLYRQAPAKEREFVATIGEGGNTYYADSVKGRFTISRDNAKNTVYLQMNSLKPEDTAVYFYAVVLGTSYRYTYWGQGTQVTVSS	low polyreactivity
QVQLQESGGGLVQAGGSLRLSCAASGLILARNYMGWYRQAPGTERELVSGIGVGASTNYADSVKGRFTISRDNAKNTVYLQMNSLEPEDTAVYYCAVGDTVLGYHYYWGQGTQVTVSN	low polyreactivity
QVQLQESGGGLVQAGGSLRLSCAASGNISSYYRMGWYRHAPGKEREFVATIAVGGTTNYADSVKGRFTISRDNAKNTVYLQMNSLKPEDTAVCFCAANCNQYTWFDYWGQGTQVPVSS	low polyreactivity
QVQLQESGGGLVQAGGSLRLSCAASGNISVTGFMGWYRKAPGKERELVASIGIGGTTYYADSVKGRFSISRDNAKNTVYLQMNSLKPEDTAVYYCAARYLYYAYSYWGQGTQVTVSS	low polyreactivity
QVQLQESGGGLVQAGGSLRLSCAASGNIVDADIMGWYRQAPGKERELVASITDGGSTNYADCVKGRFTISRDNAKNTVYLKMNSLKPEDTAVYYCAAIAYPDIPTYFDYDSEYFYWGQGTQVTVSS	low polyreactivity
QVQLQESGGGLVQAGGSLRLSCAASGNIYDADIMGWYRQAPAKERELVTSITDGGSTNYADSVKGRFTISRDNAKNTVYLQMNSLKPEDTAVYYCAAIAYPDIPTSFDYNSDYSYWGQGTQVTVSS	low polyreactivity
QVQLQESGGGLVQAGGSLRLSCAASGNIYDADIMGWYRQAPGKERELVTSITDGGSTNYADSVKGRFTISRDNAKNTVYLQMNSLKPEDTAVYYSAAIAYADIPTSFDYNSDYSYWGQGTQVTVSS	low polyreactivity
QVQLQESGGGLVQAGGSLRLSCAASGNIYEADIMGWYRQAPGKERELVTSITDGGSTNYADSVKGRFTISRDNAKNTVYLQMNSLKPEDTAVYYCAAIAYPDIPTSFDYNSDYSYWGQGTQVTVSS	low polyreactivity
QVQLQESGGGLVQAGGSLRLSCAASGSIFDGFNMGWYRQAPGKEREFVAAISYGASTYYADSVKGRFTVSRDNAKNSVYLQMNILKPEDTAVYYCAVVPSDGNLFSYWGQGTQVTVSS	low polyreactivity
QVQLQESGGGLVQAGGSLRLSCAASGSIFDGFNMGWYRQAPGKEREFVAAISYGASTYYADSVKGRFTVSRDNAKNSVYLQMNSLKPEDTAVYYCAVYDELYHVLVYWGRGTQVTVSS	low polyreactivity
QVQLQESGGGLVQAGGSLRLSCAASGSIFKGVDMGLYRQAPAKEREFVATIGEGGNTYYADSVKGRFTISRDNAKNTVYLQMNSLKPEDTAVYFYAVVLGTSYRYTYWGQGTQVTVSS	low polyreactivity
QVQLQESGGGLVQAGGSLRLSCAASGSIFVSVTMGWYRQAPGKERELVASIGRGSTTNHADSVKGRFTICRDNAKNIVYLLMNSLKPEDTAVYYCAALESYGKYHGYWGQGTQVTVSS	low polyreactivity
QVQLQESGGGLVQAGGSLRLSCAASGSIFYWPWMGWYRQAPGREREFVATITTGSNTYYADIMKGHLTISRDNARNTVYLQMKSLKPEDTAVYYCAVVGDGEIEHRYWGQGTQVTVSS	high polyreactivity
QVQLQESGGGLVQAGGSLRLSCAASGSISAVGAMGWYRQAPGKEREFAASVNWGTNTNYADSVKGRFTISRDNAKNTLNLQMNSLKPEDTAVYYCAVQPDWETRHDYWGHGTQVTVSS	low polyreactivity
QVQLQESGGGLVQAGGSLRLSCAASGSISPYYDMGWYRQAPGKEREFVAGISGGAITYYADSVKGRFTISRDNAKNTVYLQMNSLKPEDTAVYYFAADTGVYQYHSYWGQGTQVTVSS	low polyreactivity
QVQLQESGGGLVQAGGSLRLSCAASGTIFTARFMGWYRQAPGKERELVATITDGGNTNHADSVKGRFTISRDNAKNTVYLHMNSLKPEDAAVYYCAAGEVDNDTLLYWGQGSQVTVSS	low polyreactivity
QVQLQESGGGLVQAGGSLRLSCAASGTISDRAGMGWYRQAPAKNAIVANIDRGTNTNYADSVKGRFTISRDNAKNTVYLQMNSLKPEDTAVYNCAADGRYYIYLDYWGQGTQVTVSS	low polyreactivity

Sequence	polyreactivity (PSR sort gate)
QVQLQESGGGLVQAGGSLRLSCAASGTISQEDWKGRYRQAPGKEREFVAAIGLGSNTNYADSLKGRFTISRDNAKNSVYLQMNSLKPEDTAVYYCAVSVWQYSDHVYRGQGTQVTVSS	low polyreactivity
QVQLQESGGGLVQAGGSLRLSCAASGTISVAAYMAWYRQAPGKEREYVASIGYGATTYYADSEKGTFTISRDNAKNTVYLQMNSLKPGDTAVYYCAVDRSPQYRYLYYWGQGTQVTVCS	high polyreactivity
QVQLQESGGGLVQAGGSLRLSCAASGTITVLYKMGWFRQAPGKEREFVASMNYGTSTYYADSVKGRFTVSRDSAKNTVYLQMNSLKPEDTAVYYCAAAYRWQDVYRYWGQGTQVTVSS	low polyreactivity
QVQLQESGGGLVQAGGSLRLSCAASGYIFPRIYMGWYRQAPGKEREFDAGISYDAITNYADSVKGRFTISLDNAKNTVYLQMNSLNPEYTAVYYCAVSYYGTPLVTYWGQGTQVTVSS	high polyreactivity
QVQLQESGGGLVQAGGSLRLSCAASGYIFVDYTMGWHRQAPGKERELVATINLGATSYYADSVKGRFTISRDNAKNTVYQQMNSLKPEDTAVYYCAVALQQVNYFPYWCQGTQVTVSS	low polyreactivity
QVQLQESGGGLVQAGGSLRLSCAASGYISAGRQMGWYRQAPGKEREFVATINGGATTNYADSVKGRFTISRDNAKNSVYLQMNSLKPEDTAVYYCAAVIWYVQDYTYWGQGAQVTVSS	high polyreactivity
QVQLQESGGGLVQAGGSLRLSCAASGYISHADEMGWNRQAPGKEHELVASISNGGSTNYADSVKGRFTISRDNAKNTVYLQMNSLKSEDTGVYYCAAWTGQVDIHYYWGQGTQVPVSS	low polyreactivity
QVQLQESGGGLVQAGGSLRLSCAASGYISHADEMGWYRQAPGKEHELVASISNGGSTNYADSVKGRFTISRDNAKNTVYLQMNSLKSEDTAVYYCAAWTGQVDIHYYWGLGTQVTVSS	low polyreactivity
QVQLQESGGGLVQAGGSLRLSCAASGYISHADEMGWYRQAPGKEHELVASISNGGSTNYADSVKGRFTISRDNAKNTVYLQRNSLKSEDTAVYYCAAWTGQVDIHYYWGQGTQVTVSS	low polyreactivity
QVQLQESGGGLVQAGGSLRLSCAASGYISQSSVMGWYRQAPGKEREFVASISYGATTYYADSVKGRYTISRDNAKDTVYLQTNSPKPEVTAVYYCAVCVKRGFSHRYWGQGTQVTVSS	high polyreactivity
QVQLQESGGGLVQAGGSLRLSCAASGYISTFSSEMGWYRQAPGKERELVASIAPGCTTSYADSVKGRFTISRDKAKNTVYLQMNILKPEDTAVYFCAVVYTVPASFGYWGQGTQVTVIS	high polyreactivity
QVQLQESGGGLVQAGGSLRLSCAASSNNTTLDVMCWYRQAPGKEREFVASIGSGGITNYADSVKGRFTISRDNAKNTVYLQMNSLKPEDTAVYYCAVLNQAYTDLIYWGQGTQVTVSS	high polyreactivity
QVQLQESGGGLVQAGGSLRLSCAATGRTFRYNTMGWYRKATGKERELVARITWSGGSTYYADSVKGRFTISRDNAKNTVYLQMNSLKPEDTAVYYCAAVPILVYRWFQSYTGDYDYWGQGTQVTVSS	low polyreactivity
QVQLQESGGGLVQAGGSLRLSCEASGTIFKYYTMGWYRQAPGKEREFVAGINVGSTTNYADIVKGRFTISRDNAKNTVYLQMNSLKPEDTAVYYCAAYFIFLYYHDYWGLGTQVTVSS	low polyreactivity
QVQLQESGGGLVQAGGSLRLSCSASGNISVTGVMGWYRQAPGKERELVPSIGIGGTTYYADSVKGRFSISRDNATITVYLQMNSLKPQDTAVYYCAARYLYYAYSYWGQGTQVTVSS	low polyreactivity
QVQLQESGGGLVQAGGSLRMSCAASGSISSRDAMGLYRQAPGKEREFVATIASGTTTYYADSVKGSFTISRDNAENTVYLQTNSLKPEDTAVYYCAAPTIQIYPFYYWGQGTQVTVSS	high polyreactivity
QVQLQESGGGLVQAGGSLRPSCAASGSLSDGVPMGWYRQAPGEERELVATTVLGATTNYADSVKGRFTISRGNAKNTVYLQMNSLKPEETAVYYCAAPLRYDKGFSYWGQGTQVTVSS	low polyreactivity
QVQLQESGGGLVQAGGSLRQSYAASGYIFPSLAMGWYRQAPGKEREFVAAIGRGSTNNYADSLKGRFTISRDNEKNTAYQQMNSLKPEVTAVYYCAADASPLTRHLYWGQGTQVTVSS	low polyreactivity
QVQLQESGGGLVQAGGSLRRSCAATGSIFYRLKMGWHRQATGKERELVATIDPGSNTYYADSVKGSFTMSRDNAKNTVYPQMYSLKPEDTAVYYCAVSAHWTIHYYYWGQGTQVTVSS	high polyreactivity
QVQLQESGGGLVQAGGSLSLSCAASGSISAVGAMGWYRKAPGKERELAASVNWCTNTNYADSVKGRFTISRDNAKNTLYLQMNSLKPEDTAVYYCAVLPDWETRHDYWGHGTQVTVSS	low polyreactivity
QVQLQESGGGLVQAGGSPRLSCAASGTITRQYYMGWYRQAPGKERGFVAGIKSGSTTYYADNVKGCFTISRDNAKNAAYLQMNSLKPEDTAVYYCAIRPSYTIPYWYWGQGTQVTVSS	high polyreactivity
